Test results taken from the RNAGym collection of RNA variant scans (doi:10.1073/pnas.2313332121).

B1: TPR t1 (parent)
chain: GACCAAUCUGCCCUCAGAGCUCGAGAACAUCUUCGGAUGCAGAGGAGGCAGGCUUCGGUGGCGCGAUAGCGCCAACGUCCUCAACCUCCAAUGCAUCCCACCACAUGAUGAUGCCUGAAGAGCCUUGGUUUUUUG

Variants of: B1
Assay: polymerase ribozyme fitness, log enrichment relative to wild type (log ratio); higher = more active; in vitro selection for triplet polymerase activity
Method in brief: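 Mutant libraries were PCR-built and transcribed for each subunit of a heterodimeric triplet polymerase ribozyme and selected for one round in triplicate at −7 °C, frozen, before gel excision of extended constructs and streptavidin-bead capture. Input and output libraries were Illumina-sequenced, keeping genotypes with ≥10 input reads and ≥1 read per output. Fitness is a logarithmic ratio of genotype to wild-type enrichment, in base 2, using inverse-variance-weighted replicate averages.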

Variant	polymerase ribozyme fitness (log ratio)
GACCAAUCUGCCGUCAGAGCUCGAGAACAUCUUCGGAUGCAGAGGAGGCAGGCUUCGGUGGCGCGAUAGCGCCAACGUCCUCAACCUCCAAUGCGUCCCACCACAUGAUGACGCCUGAAGAGCUUUGGUUUUUUG [C13G A95G U112C C124U]	1.05
GACCAAUCUGCCGUCAGAGCUCGAGAACGUCUUCGGAUGCAAAGGAGGCAGGCUUCGGUGGCGCGAUAGCGCCAACGUCCUCAACCUCCAAUGCAUCCCACCACAUGAUGAUGCCUUAAGAGCCUUGGUUUUUUG [C13G A29G G42A G117U]	-6.21
GACCAAUCUGCCGUCAGAGCUCGAGAACAUCUUCGGAUGCGGAGGAGUCAGGCUUCGGUGGCGCGAUAGCGCCAACGGCCUCAACCUCCACUGCAUCCCACCACAUGAUGAUGCCUGAAGAGCCUUGGUUUUUUG [C13G A41G G48U U78G A91C]	-5.06
GACCAAUCUGCCGUCAGAGCUCGAGAACAUCUUCGGAUGAAGAGGAGGCAGGCUUCGGUGGCACGAUAGCGCCAACGUCCUCAACCUCCAAUGCAUCCCACCACAUGAUGAUGCCUGAAGAGCCUUGGUUUUUUG [C13G C40A G63A]	-4.13
GACCAAUCUGCCGUCAGAGCUCGAGAACAUCUUCGGAUGUAGAGGAGGAAGGCUUCGGUGGCGCGAUAGCGCCAACGUCCUCAACCUCCAAUGCAUCCCACCACAUGAUGAUGCCUGAAGAGCCUUGGUUUUUUG [C13G C40U C49A]	-2.42
GACCAAUCUGCCGUCAGAGCUCGAGAACAUCUUCGGAUGCAGAGGAGGUAGGCUUCGGUGGCGCGAUAGCGCCAACGUCCUAAACCUCCAAUGCAUCCCACCACAUGAUGAUGCCUGAAGAGCGAUGGUUUUUUG [C13G C49U C82A C124G U125A]	0.252
GACCAAUCUGCCGUCAGAGCUCGAGAACAUCUUCGGAUGCAGAGGAGGCAGGGUUCGGUGGCGCGAUAGCGCCAACGUCCUCAACCUCCAAUGCAUCCCACCACAUGAUGAUGCCUGAAGAGCCUUGGUUUUUUG [C13G C53G]	-1.53
GACCAAUCUGCCGUCAGAGCUCGAGAACAUCUUCGGAUGCAGAGGAGGCAGGCUUCGGUGGCGCGAUAGCGCCAACGUCCUCACCCUCCAAUGCAUCCCACUACAUGAUGAUGCCUGAAGAGCCUUGGUUUUUUG [C13G A84C C102U]	-2.71
GACCAAUCUGCCGUCAGAGCUCGAGAACAUCUUCGGAUGGAGAGGAGGCAGGCUUCGGUGGCGCGAUAGCGCCAACGUCCUCAAGCUCGAAUGCAUCCCACCACAUGAUGAUGCCUGAAGAGGCUUGGUUUUUUG [C13G C40G C85G C89G C123G]	-4.99
GACCAAUCUGCCGUCAGAGCUCGAGAACAUCUUCGGAUGCAGAGGAGGCAGGCUUCGGUGGCGCGAUAGCGCCAACGUCCUCAACCUCCAAUGCAUCCCACCACAUGAUGGUGCUUGAAGAGCCUUGGUUUUUUG [C13G A111G C115U]	-4.46
GACCAAUCUGCCGUCAGAGCUCGAGAACAUCUUCGGAUGAAGAGGAGGCAGGCUUCGGUGGCGCGAUAGCGCCAACGUCCUCAUCCUCCAAUGCAUCCCACCACAAGAUGAUGCCUGAAGAGCCUUGGUUUUUUG [C13G C40A A84U U106A]	-3.53
GACCAAUCUGCCGUCAGAGCUCGAGAACAUCUUCGGGUGCAGAGGAGGCAGGGUUCGGUGGCGCGAUAGCGCCAACGUCCUCAACCUCCAAUGCAUCCCACCACAUGAUUAUACCUGAAGAGCCUUGGUUUUUUG [C13G A37G C53G G110U G113A]	-5
GACCAAUCUGCCGUCAGAGCUCGAGAACAUCUUCGGAUGCAGAGGAGGCAGGCUUCGGUGGCGCGAUAGCGCCAACGUCCUCAACCUCCAAUGCAUCCCACCACAUGAUGAUGCCUGAAGUGCCUUGGUUUUUUG [C13G A121U]	0.0945
GACCAAUCUGCCGUCAGAGCUCGAGAACAUCUUCGGAUGCAGAGGAGGCAGGCUUCGGUGGCGCGAUAGCGCCAACGUCCUCAACCUCCAAUGCAUCCCACCACAUGAUGAUGCCUGAUGAGUCUUGGUUUUUUG [C13G A119U C123U]	1.58
GACCAAUCUGCCGUCAGAGCUCGAGAAUAUCUUCGGAUGCAGAGGAGGCAGGCUUCGGUGGCGCGAUAGCGCCAACGUCCUCAACCUCCAAUGCAUCCCAUCACAUGAUGAUGCCUGAAGAGCCUUGGUUUUUUG [C13G C28U C101U]	-4.7
GACCAAUCUGCCGUCAGAGCUCGAGAACAUCUUCGGAUGAAGAGGAGGCAGGCUUCGGUGGCGCGAUAGCGCCAACGUCCUCAACCUCCAAUGCAUCCCACCACAUGAUGAUGCCUGAAGAGCCUUGGUUUUUUG [C13G C40A]	-0.524
GACCAAUCUGCCGUCAGAGCUCGAGAACAUCUUCGGAUGCAGAGGAGGAAGGCUUCGGUGGCGCGAUAGCGUCAACGUCCUCAACCUACAAUGCAUCCCACCACAUGAUGAUGCCUGAAGAGCCUUGGUUUUUUG [C13G C49A C72U C88A]	-2.56
GACCAAUCUGCCGUCAGAGCUCGAGAACAUCUUCGGAUGCUGAGGAGGCAGGCUUCGGUGGCGCGAUAGCGCCAACGUCCUCAACCUCCAAUGCAUCCCACCACAUGAUGAUGCCUCAAGAGCCUUGGUUUUUUG [C13G A41U G117C]	-5.86
GACCAAUCUGCCGUUAGAGCUCGAGAACAUCUUCGGAUGUAGAGGAGGCAGGCUUCGGUGGCGCGAUAGCGCCAACGUCCUCAACCUCCAAUGCAUCCCACCACAUGAUGAUGCCUUAAAAGCCUUGGUUUUUUG [C13G C15U C40U G117U G120A]	-2.61
GACCAAUCUGCCGUCAGAGCUCGAGAACAUCUUCGGUUGCACAGGAGGCAGGUUUCGGUGGCGCGAUAGCGCCAACAUCCUCAACCUCCAAUGCAUCCCACCACAUGAUGAUGCCUGAAGGGCCUUGGUAUUUUG [C13G A37U G42C C53U G77A A121G U130A]	-1.06
GACCAAUCUGCCGUCAGAGCUCGAGAACAUCUUCGGAUGCAGAGGAGGCAGGAUUCGGUGGCGCGAUAGCGCCAACGUCCUAAACCUCCAAUGCAUCCCACCACAUGAUGAUGCCUGAAGAGCCUUGGUUUUUUG [C13G C53A C82A]	-2.24

Variant	polymerase ribozyme fitness (log ratio)
GACCAAUCUGCCGUCAGAGCUCGAGAACAUCUUCGGAUGCAGAGGAGGCAGGCUUCGGUGGCGCGAUAGCGCCAACGUCCUCAACCUCCAAUGCAUCCCACCACAUGAUGAUGCCUGAGGAGCCUUGGUUUUUUG [C13G A119G]	-0.865
GACCAAUCUGCCGUAAGAGCUCGAGAACGUCUUCGGAUGCAGAGGAGGCAGGCUUCGGUGGCGAGAUAGCGCCAACGUCCUAAACCUCCAAUGCAUCCCACCAGAUGAGGAUGCCUGAAGAGCCUUGGUUAUUUG [C13G C15A A29G C64A C82A C104G U109G U131A]	-5.2
GACCAAUCUGCCGUCAGAGCUCGAGAACAUCUUCGGAUGCAGAGGCGGCAGGCUUCGGUGGCGCGAUAGCGCCAACGCCCUCAACAUCCAAUGCAUCCCACCACAUGAUGAUGCCUGAAGAGCCUUGGUUUUUUG [C13G A46C U78C C86A]	-4.39
GACCAAUCUGCCGUCAGAGCUCGAGAACAUCUUCGGAUGCAGAGGAGGCUGGCUUCGGUGGCGCGAUAGCGCCAACGUCCUCAACCCCCAAUGCAUCCCACCACAUGAUGAUGCCUGAAGAGCCUUGGUUUUUUG [C13G A50U U87C]	-3.31
GACCAAUCUGCCGUCAGAGCUCGAGAACAUCUUCGGAUGCAGAGGAGGAAGGCUUCGGUAGCGUGAUAGCGCCAACGUCCUCAACCUCCAAUGCAACCCACCACAGGAUAAUGCCUGAAGAGCCUUGGUUUCUUG [C13G C49A G60A C64U U96A U106G G110A U132C]	-6.52
GACCAAUCUGCCGUCAGAGCUCGAGAACAUCUUCGGAUGCAGAGGAGGCAGGCUUCGGUGGCGCGAUAGCGCCAACGUCCUCAACCUCCAAUGCAUCCCACCACAUGAUGAUGCCUGUAGAGCCUUGGUUUUUUG [C13G A118U]	-1.02
GACCAAUCUGCCGUCAGAGCUCGAGAACUUCUUAGGAUGCAGAGGAGGCAGGCUUCGGUGUCGCGAUAGCGCCAACGUCCUCAACCUCCAAUGCAUCCCACCACAUGAUGUUGCCUGAAGAGCCUUGGUUUUCUG [C13G A29U C34A G61U A111U U133C]	-1.41
GACCAAUCUGCCGUCAGAGCUCGAGAACAUCUUAGGAUACAGAGGAGGCAGGCUUCGGUGGCGCGAUAGCGCCAACGUCCUCAACCUCCAAUGCAUCCCACCACAUGAUGAUGCCUGAAGAGCCUUGGUUUUUUG [C13G C34A G39A]	-5
GACCAAUCUGCCGUCAGAGCUCGAGAACAUCUUCGGAUGCAGAGGAGGCAGGCUUCGGUGGCGCGAUAGCGCCAACGUCCUCAACCUCCGAUGCAUCCCACCACAUGAUGAUGCCUGAAGAGCCUUGGUUUUUUG [C13G A90G]	-1.86
GACCAAUCUGCCGUCAGAGCUCGAGAACAUCUUCGGAUGCAGAGGAGGCAGGCUUCGGUGGCGCGAUAGCGCCUACGUCCUCAACCUCCAAUGCAUCCCACCACAUGAUGAUGCCUGAAGAGCCUUGGUUUUUUG [C13G A74U]	-2.54
GACCAAUCUGCCGUCAGAGCUCGAGAACAUCUUCGGAUGCAGAGGAGGCCGGGUUCGGUGGCGCGAUAGCGCCAACGUCCUCAACCUCCAAUGCAGCCCACCACAUGAUGAUGCCUGAAGAGCCUUGGUUUUUUG [C13G A50C C53G U96G]	-3.94
GACCAAUCUGCCGUCAGAGCUCGAGAACAUCUUCGGAUGCAGAGGAGGAAGGCUUCGGUGGCGCGAUAGCGCCAACGUCCUCAACCUCCAAUGCAUCCCACCACAUGAUGAUGCCUGAAGAGCCUUGGUUUUUUG [C13G C49A]	-1.26
GACCAAUCUGCCGUCAGAGCUCGAGAACAUCUUCGGAUGCUGAGGAGGCAGGCUUCGGUGGCGCGAUAGCGCCAACGUCCUCAACCUCCAAUGCAUCCCACCACAUGAUGAUGCCUGAAGAGCCUUGGUUUUUUG [C13G A41U]	-3.04
GACCAAUCUGCCGUCAGAGCUCGAGAACAUCUUCGGAUGCAGAGGAGGCGGGCUUCGGUGGCGCGAUAGCGCCAACGUCCUCAACCUCCAAUGCAUCCCACCACAAGAUGAUGCCUGAAGAGCAUUUGUUUUUUG [C13G A50G U106A C124A G127U]	1.19
GACCAAUCUGCCGUCAGAGCUCGAGAACAUCUUCGGAUGCAGAGGAGGCAGGCUUCGGUGGCGCGAUAGCGCCAACGUCCUCAACCUCCAAUGCAUCCCACCACUUGAUGACGCCUGAAGAGCCUUGGUUUUUUG [C13G A105U U112C]	-2.47
GACCAAUCUGCCGUCAGAGCUUGAGAACAUCUUCGGAUGCAGAGGAGGCAGGCUUCGGUGGCGCGAUAGCGCCAACGUCCUCAACCUCCAAUGCAUCCCACCACAUGAUGAUGCCUGAAGAGCCUUGGUUUUUUG [C13G C22U]	-3.6
GACCAAUCUGCCGUCAGAGCUCGAGAACAUCUUCGGAUGCAGUGGAGGCAGGCUUCGGUGGCGCGAUAGCGCCAACGUCCUCAGCCUCCAAUGCAUCCCACCACAUGAUGAUGCCUGAAGCGCCUUGGUUGUUUG [C13G A43U A84G A121C U131G]	-1.74
GACCAAUCUGCCGUCAGAGCUCGAGAACAUCUUCGGAUGCAGUGGAGGCAGGCUUCGAUGGCGCGAUAGCGCCAACGUCCUCAACCUCCAAUGCAUCCCACCACAUGAUGAUGCCUGAAGAGCCUUGGUUUUUUG [C13G A43U G58A]	-4.45
GACCAAUCUGCCGUCAGAGCUCGAGAACCUCUUCGGAUGCAGAGGAGGCAGGCAUCGGUGGCGCGAUAGCGCCAACGUCCUCAACCUCCAAUGCAUCCCACCACCAGAUGAUGCCUGAAGAGCCUUGGUUUUUUG [C13G A29C U54A A105C U106A]	-3.03
GACCAAUCUGCCGUCAGAGCUCGAGAACAUCUUCGGAUGCAGUGGAGGCAGGCUUCGGUGGCGCGAUAGCGCCAAUGUCCUCAACCUCCAAUGCAUCCCACCACAUGAUGAUGCCUGAAGAGCCUUGGUUUUUUG [C13G A43U C76U]	-1.01
GACCAAUCUGCCGUCAGAGCUCGAGAACAUCUUCGGGUGCAGAGGAGGCAGGCUUCGGUGGCGCGAUAGCGCCAACGUCCUCAACCUCCAAUGCAUCCCACCACAUGAUGAUGCCUCAAGAGCCUUGGUUUUUUG [C13G A37G G117C]	-4.68
